The results in this text go back to article PMC10656227.

Assay [1] deals with collagen IV NC1 domains of the NC1 hexamer from Caenorhabditis elegans (Caenorhabditis elegans). Briefly: SDS-PAGE (SDS resistance of the native hexamer); partially purified NC1 hexamer (SEC hexamer fraction); SDS-PAGE with 150 mM NaCl; sample at room temperature; Western blot with JK2 or TCE in-gel visualization. Background: Immunoblotting shows a protein as a band on a membrane.

For assay [2] the target is unchanged. In words: SDS-PAGE (SDS resistance of the native hexamer); partially purified NC1 hexamer (SEC hexamer fraction); regular SDS-PAGE without Cl^− supplement; sample at room temperature; Western blot with JK2 or TCE in-gel visualization.
Assay [3] deals with collagen IV NC1 domains of the NC1 hexamer from condylactis anemone (condylactis anemone (Condylactis gigantea)). In words: SDS-PAGE (SDS resistance of the native hexamer); partially purified NC1 hexamer (SEC hexamer fraction); SDS-PAGE with 150 mM NaCl; sample at room temperature; Western blot with JK2 or TCE in-gel visualization.
The target in assay [4] is collagen IV NC1 domains of the NC1 hexamer from Ascaris suum (Ascaris suum). In words: SDS-PAGE (SDS resistance of the native hexamer); purified NC1 hexamer; regular SDS-PAGE without Cl^− supplement; sample at room temperature, not boiled; Coomassie, TCE or Western blot.
Assay [5] has the same target. Briefly: SDS-PAGE (SDS resistance of the native hexamer); purified NC1 hexamer; Tris-glycine SDS-PAGE with 150 mM NaCl in running buffer and sample buffer; sample at room temperature, not boiled; Coomassie, TCE or Western blot.
Assay [6] addresses collagen IV NC1 domains of the NC1 hexamer from horseshoe crab flatworm (horseshoe crab flatworm (Bdelloura candida)). In words: SDS-PAGE (SDS resistance of the native hexamer); partially purified NC1 hexamer (SEC hexamer fraction); SDS-PAGE with 150 mM NaCl; sample at room temperature; Western blot with JK2 or TCE in-gel visualization.
For assay [7], the target named is collagen IV NC1 domains of the NC1 hexamer from mouse kidney (mouse (Mus musculus)). Briefly: SDS-PAGE (SDS resistance of the native hexamer); straight collagenase digest of tissue or animals; SDS-PAGE with 150 mM NaCl; sample at room temperature; Western blot with JK2.
Assay [8] has as its target collagen IV NC1 domains of the NC1 hexamer from comb jelly (comb jelly (Mnemiopsis leidyi)). In words: SDS-PAGE (SDS resistance of the native hexamer); partially purified NC1 hexamer (SEC hexamer fraction); SDS-PAGE with 150 mM NaCl; sample at room temperature; Western blot with JK2 or TCE in-gel visualization.
Assay [9] has the same target. In words: SDS-PAGE (SDS resistance of the native hexamer); partially purified NC1 hexamer (SEC hexamer fraction); regular SDS-PAGE without Cl^− supplement; sample at room temperature; Western blot with JK2 or TCE in-gel visualization.
In assay [10] the target is collagen IV NC1 domains of the NC1 hexamer from brown planaria (brown planaria (Dugesia tigrina)). In words: SDS-PAGE (SDS resistance of the native hexamer); partially purified NC1 hexamer (SEC hexamer fraction); SDS-PAGE with 150 mM NaCl; sample at room temperature; Western blot with JK2 or TCE in-gel visualization.
For assay [11] the target is unchanged. In words: SDS-PAGE (SDS resistance of the native hexamer); partially purified NC1 hexamer (SEC hexamer fraction); regular SDS-PAGE without Cl^− supplement; sample at room temperature; Western blot with JK2 or TCE in-gel visualization.
Assay [12] concerns the target collagen IV NC1 domains of the NC1 hexamer from brine shrimp (brine shrimp (Artemia salina)). Briefly: SDS-PAGE (SDS resistance of the native hexamer); straight collagenase digest of tissue or animals; SDS-PAGE with 150 mM NaCl; sample at room temperature; Western blot with JK2.
Assay [13] has the same target. Briefly: SDS-PAGE (SDS resistance of the native hexamer); straight collagenase digest of tissue or animals; regular SDS-PAGE without Cl^− supplement; sample at room temperature; Western blot with JK2.
In assay [14] the target is collagen IV NC1 domains of the NC1 hexamer from moon jellyfish (moon jellyfish (Aurelia aurita)). In words: SDS-PAGE (SDS resistance of the native hexamer); partially purified NC1 hexamer (SEC hexamer fraction); SDS-PAGE with 150 mM NaCl; sample at room temperature; Western blot with JK2 or TCE in-gel visualization.
Assay [15] has as its target collagen IV NC1 domains of the NC1 hexamer from American lobster (American lobster (Homarus americanus)). In words: SDS-PAGE (SDS resistance of the native hexamer); straight collagenase digest of tissue or animals; SDS-PAGE with 150 mM NaCl; sample at room temperature; Western blot with JK2.
The target is the same in assay [16]. In words: SDS-PAGE (SDS resistance of the native hexamer); straight collagenase digest of tissue or animals; regular SDS-PAGE without Cl^− supplement; sample at room temperature; Western blot with JK2.
The target of assay [17] is collagen IV NC1 domains of the NC1 hexamer from rotifers (rotifer (Brachionus plicatilis)). In words: SDS-PAGE (SDS resistance of the native hexamer); partially purified NC1 hexamer (SEC hexamer fraction); SDS-PAGE with 150 mM NaCl; sample at room temperature; Western blot with JK2 or TCE in-gel visualization.
For assay [18] the target is unchanged. Briefly: SDS-PAGE (SDS resistance of the native hexamer); partially purified NC1 hexamer (SEC hexamer fraction); regular SDS-PAGE without Cl^− supplement; sample at room temperature; Western blot with JK2 or TCE in-gel visualization.
Assay [19] concerns the target collagen IV NC1 domains of the NC1 hexamer from bovine kidney (cow (Bos taurus)). Briefly: SDS-PAGE (SDS resistance of the native hexamer); purified NC1 hexamer; Tris-glycine SDS-PAGE with 150 mM NaCl in running buffer and sample buffer; sample at room temperature, not boiled; Coomassie, TCE or Western blot.
Assay [20] has as its target collagen IV NC1 domains of the NC1 hexamer from marmoset kidney (common marmoset (Callithrix jacchus)). Briefly: SDS-PAGE (SDS resistance of the native hexamer); partially purified NC1 hexamer (SEC hexamer fraction); SDS-PAGE with 150 mM NaCl; sample at room temperature; Western blot with JK2 or TCE in-gel visualization.
Assay [21] deals with collagen IV NC1 domains of the NC1 hexamer from starlet sea anemone (starlet sea anemone (Nematostella vectensis)). The assay is described as above.
Assay [22] concerns the target collagen IV NC1 domains of the NC1 hexamer from fruit fly (fruit fly (Drosophila melanogaster)). In words: SDS-PAGE (SDS resistance of the native hexamer); purified NC1 hexamer; regular SDS-PAGE without Cl^− supplement; sample at room temperature, not boiled; Coomassie, TCE or Western blot.
Assay [23] shares this target. In words: SDS-PAGE (SDS resistance of the native hexamer); purified NC1 hexamer; Tris-glycine SDS-PAGE with 150 mM NaCl in running buffer and sample buffer; sample at room temperature, not boiled; Coomassie, TCE or Western blot.
Assay [24] concerns the target collagen IV NC1 domains of the NC1 hexamer from cicada (cicada (Magicicada spp)). In words: SDS-PAGE (SDS resistance of the native hexamer); straight collagenase digest of tissue or animals; SDS-PAGE with 150 mM NaCl; sample at room temperature; Western blot with JK2.
Assay [25] has the same target. In words: SDS-PAGE (SDS resistance of the native hexamer); straight collagenase digest of tissue or animals; regular SDS-PAGE without Cl^− supplement; sample at room temperature; Western blot with JK2.

On to “collagen IV NC1 domains of the NC1 hexamer from Caenorhabditis elegans (domain or fragment)”, for which the stoichiometry N in assay [1] and in assay [2] was 6 throughout. In [3], “collagen IV NC1 domains of the NC1 hexamer from condylactis anemone (domain or fragment)” returned a stoichiometry N of 6. As to “collagen IV NC1 domains of the NC1 hexamer from Ascaris suum (domain or fragment)”, the stoichiometry N in [4] and in assay [5] was 6 throughout. As to “collagen IV NC1 domains of the NC1 hexamer from horseshoe crab flatworm (domain or fragment)”, the stoichiometry N in assay [6] turned out to be 6. In the case of “collagen IV NC1 domains of the NC1 hexamer from mouse kidney (domain or fragment)”, the stoichiometry N in assay [7] is 6. In the case of “collagen IV NC1 domains of the NC1 hexamer from comb jelly (domain or fragment)”, the stoichiometry N in assay [8] and in assay [9] was 6 each time. Regarding “collagen IV NC1 domains of the NC1 hexamer from brown planaria (domain or fragment)”, the stoichiometry N in [10] and in assay [11] was 6 throughout. For “collagen IV NC1 domains of the NC1 hexamer from brine shrimp (domain or fragment)”, the stoichiometry N in assay [12] and in [13] was 6 throughout. “collagen IV NC1 domains of the NC1 hexamer from moon jellyfish (domain or fragment)”: the stoichiometry N in [14] was found to be 6.

Turning to “collagen IV NC1 domains of the NC1 hexamer from American lobster (domain or fragment)”, the stoichiometry N in [15] and in assay [16] was 6 each time. For the substance “collagen IV NC1 domains of the NC1 hexamer from rotifers (domain or fragment)”, the stoichiometry N in assay [17] and in assay [18] was 6 each time. With “collagen IV NC1 domains of the NC1 hexamer from bovine kidney (domain or fragment)”, in assay [19], the stoichiometry N is 6.

As for “collagen IV NC1 domains of the NC1 hexamer from marmoset kidney (domain or fragment)”, in assay [20], the stoichiometry N was 6.

“collagen IV NC1 domains of the NC1 hexamer from starlet sea anemone (domain or fragment)”: the stoichiometry N in [21] was 6. As for “collagen IV NC1 domains of the NC1 hexamer from fruit fly (domain or fragment)”, the stoichiometry N in assay [22] and in [23] was 6 throughout. As for “collagen IV NC1 domains of the NC1 hexamer from cicada (domain or fragment)”, the stoichiometry N in [24] and in assay [25] was 6 each time.

A word on the stoichiometry N: it is a count of units in the complex or per binding partner.
